According to paper doi:10.1101/2025.11.11.687766:

Assays:
[1] = target: Retron-Eco8 effector (OLD-family nuclease), untagged, of the Retron-Eco8^ATP construct (Escherichia coli); assay: cryo-EM structure
[2] = target: Retron-Eco8 reverse transcriptase (RT) (Escherichia coli); assay: cryo-EM structure

stoichiometry N [1]: 4
stoichiometry N (RT per effector (4:4)) [2]: 1
Substance: Retron-Eco8 effector (OLD-family nuclease), untagged, of the Retron-Eco8^ATP construct (enzyme)
